The text below walks through data of the supplement of paper PMC11246515.

The series is described as follows: total protein half-life in vivo (active degradation + dilution); higher = more stable protein.
Setting [1] is: E. coli NCM3722 delta-clpP delta-lon delta-hslV, growth: N-lim chemostat, doubling time 6 h.
Where [2] appears, read: E. coli NCM3722 delta-clpP, growth: N-lim chemostat, doubling time 6 h.
[3] abbreviates: E. coli NCM3722 delta-hslV, growth: N-lim chemostat, doubling time 6 h.
Setting [4] is: E. coli NCM3722 delta-lon, growth: N-lim chemostat, doubling time 6 h.
The mark [5] stands for this setting: E. coli NCM3722 delta-smpB, growth: N-lim chemostat, doubling time 6 h.
The mark [6] stands for this setting: wild type E. coli NCM3722, growth: C-lim chemostat, doubling time 3 h.
Setting [7] is: wild type E. coli NCM3722, growth: C-lim chemostat, doubling time 6 h.
[8] abbreviates: wild type E. coli NCM3722, growth: C-lim chemostat, doubling time 12 h.
Where [9] appears, read: wild type E. coli NCM3722, growth: N-lim chemostat, doubling time 6 h.
The mark [10] stands for this setting: wild type E. coli NCM3722, growth: N-lim chemostat, doubling time 12 h.
The mark [11] stands for this setting: wild type E. coli NCM3722, growth: P-lim chemostat, doubling time 6 h.
The mark [12] stands for this setting: wild type E. coli NCM3722, growth: P-lim chemostat, doubling time 12 h.

± gives the standard deviation of the averaged measurements.

As to “MANADLDKQPDSVSSVLKVFGILQALGEEREIGITELSQRVMMSKSTVYRFLQTMKTLGYVAQEGESEKYSLTLKLFELGARALQNVDLIRSADIQMRELSRLTKETIHLGALDEDSIVYIHKIDSMYNLRMYSRIGRRNPLYSTAIGKVLLAWRDRDEVKQILEGVEYKRSTERTITSTEALLPVLDQVREQGYGEDNEEQEEGLRCIAVPVFDRFGVVIAGLSISFPTLRFSEERLQEYVAMLHTAARKISAQMGYHDYPF”, the “total protein half-life in vivo” value runs as follows: under setting [1], 6.07 ± 1.7 h; under setting [2], 6.18 ± 1.6 h; under setting [3], 4.82 ± 0.33 h; under setting [4], 5.09 ± 0.25 h; under setting [5], 5.01 ± 0.17 h; under setting [6], 3.01 ± 0.13 h. Besides, the “total protein half-life in vivo” value was 5.91 ± 0.28 h under setting [7]; 10.2 ± 0.83 h under setting [8]; 5.255 ± 0.017 h under setting [9]; 8.11 ± 0.13 h under setting [10]; 5.82 ± 0.61 h under setting [11]; 11.1 ± 0.7 h under setting [12].
Regarding “MKKFSGIIPPVSSTFHRDGTLDKKAMREVADFLINKGVDGLFYLGTGGEFSQMNTAQRMALAEEAVTIVDGRVPVLIGVGSPSTDEAVKLAQHAQAYGADGIVAINPYYWKVAPRNLDDYYQQIARSVTLPVILYNFPDLTGQDLTPETVTRLALQNENIVGIKDTIDSVGHLRTMINTVKSVRPSFSVFCGYDDHLLNTMLLGGDGAITASANFAPELSVGIYRAWREGDLATAATLNKKLLQLPAIYALETPFVSLIKYSMQCVGLPVETYCLPPILEASEEAKDKVHVLLTAQGILPV”, the “total protein half-life in vivo” value under setting [1] worked out at 4.88 ± 0.66 h; the “total protein half-life in vivo” value under setting [2] was 2.73 ± 0.14 h; the “total protein half-life in vivo” value under setting [5] was 3.17 ± 1.4 h; the “total protein half-life in vivo” value under setting [6] stood at 2.83 ± 0.1 h; the “total protein half-life in vivo” value under setting [7] was 4.76 ± 0.24 h; the “total protein half-life in vivo” value under setting [8] amounted to 9.39 ± 0.15 h. For the same sequence, the “total protein half-life in vivo” value by setting is: under setting [9], 3.68 h; under setting [12], 11.11 ± 0.052 h.
As to “MRITIYTRNDCVQCHATKRAMENRGFDFEMINVDRVPEAAEALRAQGFRQLPVVIAGDLSWSGFRPDMINRLHPAPHAASA [P0AC65]”, under setting [1], the “total protein half-life in vivo” value stood at 2.48 ± 0.033 h.
On to “MNTIASVTLPHHVHAPRYDRQQLQSRIVHFGFGAFHRAHQALLTDRVLNAQGGDWGICEISLFSGDQLMSQLRAQNHLYTVLEKGADGNQVIIVGAVHECLNAKLDSLAAIIEKFCEPQVAIVSLTITEKGYCIDPATGALDTSNPRIIHDLQTPEEPHSAPGILVEALKRRRERGLTPFTVLSCDNIPDNGHVVKNAVLGMAEKRSPELAGWIKEHVSFPGTMVDRIVPAATDESLVEISQHLGVNDPCAISCEPFIQWVVEDNFVAGRPAWEVAGVQMVNDVLPWEEMKLRMLNGSHSFLAYLGYLSGFAHISDCMQDRAFRHAARTLMLDEQAPTLQIKDVDLTQYADKLIARFANPALKHKTWQIAMDGSQKLPQRMLAGIRIHQGRETDWSLLALGVAGWMRYVSGVDDAGNAIDVRDPLSDKIRELVAGSSSEQRVTALLSLREVFGDDLPDNPHFVQAIEQAWQQIVQFGAHQALLNTLKI”, for which the “total protein half-life in vivo” value by setting is: under setting [1], 5.54 ± 0.38 h; under setting [6], 0.36 ± 0.057 h; under setting [7], 0.863 h; under setting [8], 0.917 h.
In the case of “MGSTRKGMLNVLIAAVLWGSSGVCAQYIMEQSQMSSQFLTMTRLIFAGLILLTLSFVHGDKIFSIINNHKDAISLLIFSVVGALTVQLTFLLTIEKSNAATATVLQFLSPTIIVAWFSLVRKSRPGILVFCAILTSLVGTFLLVTHGNPTSLSISPAALFWGIASAFAAAFYTTYPSTLIARYGTLPVVGWSMLIGGLILLPFYARQGTNFVVNGSLILAFFYLVVIGTSLTFSLYLKGAQLIGGPKASILSCAEPLSSALLSLLLLGITFTLPDWLGTLLILSSVILISMDSRRRARKINRPARHK”, the “total protein half-life in vivo” value under setting [2] turned out to be 6.18 h; the “total protein half-life in vivo” value under setting [3] amounted to 4.72 ± 1.2 h; the “total protein half-life in vivo” value under setting [4] was 5.26 h; the “total protein half-life in vivo” value under setting [7] was 6.04 h; the “total protein half-life in vivo” value under setting [8] worked out at 13.3 h; the “total protein half-life in vivo” value under setting [9] came to 5.29 h. Further, the “total protein half-life in vivo” value under setting [10] amounted to 12.8 h, the “total protein half-life in vivo” value under setting [11] came out at 5.97 h and the “total protein half-life in vivo” value under setting [12] came to 12 ± 0.74 h.
Regarding “MRGKILLYQLKYRWQSLSIFGCFLCKMTLFRYQKIIYDTGVHQMRSFFYTICSSEQQESITDHHSLAEICQKFNILPEHVVIEQVDIKEVVSEQRLLRQLIHHEMNRQDTLVIPDLSCLGRTVEDLQNILFFCLQKEMFIYSYHPASRIEPSAESCLSFLIARQDTIDIHNLKSTKSRYRHVKKKLGRKEGSKYRRDITILKKGGFTQAEIAKKLSISLSTVKRHWNNGIIG”, the “total protein half-life in vivo” value under setting [1] turned out to be 6.03 h.
“MESKVVVPAQGKKITLQNGKLNVPENPIIPYIEGDGIGVDVTPAMLKVVDAAVEKAYKGERKISWMEIYTGEKSTQVYGQDVWLPAETLDLIREYRVAIKGPLTTPVGGGIRSLNVALRQELDLYICLRPVRYYQGTPSPVKHPELTDMVIFRENSEDIYAGIEWKADSADAEKVIKFLREEMGVKKIRFPEHCGIGIKPCSEEGTKRLVRAAIEYAIANDRDSVTLVHKGNIMKFTEGAFKDWGYQLAREEFGGELIDGGPWLKVKNPNTGKEIVIKDVIADAFLQQILLRPAEYDVIACMNLNGDYISDALAAQVGGIGIAPGANIGDECALFEATHGTAPKYAGQDKVNPGSIILSAEMMLRHMGWTEAADLIVKGMEGAINAKTVTYDFERLMDGAKLLKCSEFGDAIIENM”: the “total protein half-life in vivo” value is, setting by setting: under setting [1], 4.7 ± 0.38 h; under setting [2], 4.36 ± 0.53 h; under setting [3], 4.05 ± 0.061 h; under setting [4], 4.61 ± 0.056 h; under setting [5], 4.1 ± 0.047 h; under setting [6], 3.16 ± 0.068 h. For the same sequence, the “total protein half-life in vivo” value runs as follows: under setting [7], 5.584 ± 0.048 h; under setting [8], 10.1 ± 0.64 h; under setting [9], 4.08 ± 0.24 h; under setting [10], 6.47 ± 0.1 h; under setting [11], 5.73 ± 0.1 h; under setting [12], 12.3 ± 0.41 h.
In the case of “MSTTHNVPQGDLVLRTLAMPADTNANGDIFGGWLMSQMDIGGAILAKEIAHGRVVTVRVEGMTFLRPVAVGDVVCCYARCVQKGTTSVSINIEVWVKKVASEPIGQRYKATEALFKYVAVDPEGKPRALPVE [P0A8Z0]”, the “total protein half-life in vivo” value came out at 5.03 ± 0.4 h under setting [1]; 5.16 ± 0.9 h under setting [2]; 5.24 ± 0.38 h under setting [3]; 5.86 ± 0.43 h under setting [4]; 5 ± 0.31 h under setting [5]; 2.93 ± 0.13 h under setting [6]. Also, the “total protein half-life in vivo” value is, setting by setting: under setting [7], 5.72 ± 0.64 h; under setting [8], 11.1 ± 0.23 h; under setting [9], 5.6 ± 0.096 h; under setting [10], 10.1 ± 0.37 h; under setting [11], 5.8 ± 0.5 h; under setting [12], 13.3 ± 0.14 h.
As to “MATYLIGDVHGCYDELIALLHKVEFTPGKDTLWLTGDLVARGPGSLDVLRYVKSLGDSVRLVLGNHDLHLLAVFAGISRNKPKDRLTPLLEAPDADELLNWLRRQPLLQIDEEKKLVMAHAGITPQWDLQTAKECARDVEAVLSSDSYPFFLDAMYGDMPNNWSPELRGLGRLRFITNAFTRMRFCFPNGQLDMYSKESPEEAPAPLKPWFAIPGPVAEEYSIAFGHWASLEGKGTPEGIYALDTGCCWGGTLTCLRWEDKQYFVQPSNRHKDLGEAAAS”, the “total protein half-life in vivo” value amounted to 4.24 ± 0.43 h under setting [1]; 4.196 ± 0.017 h under setting [2]; 3.52 ± 0.16 h under setting [3]; 3.56 ± 0.044 h under setting [4]; 3.68 ± 0.14 h under setting [5]; 2.71 ± 0.18 h under setting [6]. In addition, the “total protein half-life in vivo” value under setting [7] was found to be 4.718 ± 0.0074 h; the “total protein half-life in vivo” value under setting [8] was 6.99 ± 0.28 h; the “total protein half-life in vivo” value under setting [9] was found to be 4.03 ± 0.15 h; the “total protein half-life in vivo” value under setting [10] came to 5.76 ± 0.16 h; the “total protein half-life in vivo” value under setting [11] amounted to 4.83 ± 0.51 h; the “total protein half-life in vivo” value under setting [12] came out at 9.31 ± 0.91 h.
